Source: the nanobody polyreactivity screen of Harvey et al. (2022)

Assay: yeast display, Sf9 membrane polyspecificity reagent, FACS + sequencing; frameworks hold sequencing errors
Summary of the method: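 A nanobody's polyreactivity label depends on the gate it was sorted from. Yeast display cells were stained with 10% biotinylated, detergent-solubilized Sf9 membrane reagent for 1 hour at 4 °C, enriched on streptavidin microbeads and sorted by FACS. The low and high (top ~1%) gates were set on anti-HA fluorescence for expression and streptavidin fluorescence for reagent binding.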

Row | Sequence | polyreactivity (PSR sort gate)
1 | QVQLVESGGGLVQAGGSLRLSCAASGRIFRSYAMGWYRQAPGKERELVAAITWGGGRTYYADSVKGRFTISRDNAKNTVYLQMNSLKPEDTAVYYCNTLAYPYYRGSKYDYWGQGTQVTVSS | high polyreactivity
2 | QVQLVESGGGLVQAGGSLRLSCAASGSIFYANAMGWYRQAPWKEREFVAAISSSGGGTSYADSVKGRFTISRDNAKNTVYLQMNSLKPEDTAVYYFAARVTYGGIPARQIYDYWGQGTQVTVSS | low polyreactivity
3 | QVQLVESGGGLVQAGGILRLSCAASGFIFAYYAMGWYRQAPGKEREFVAVITSSGGRTYYADSVKGRFTISRDNAKNTVYLQMNSLNPVDTAVYYCATSRGYANKYYYWGQGSQVTVSS | low polyreactivity
4 | QVQLVESGGGLVQAVGSLRLSCAASGSTFHWYDMGWYRQAPGKERELVPGINSSGDGTYYADSVKGRFTISRDNAKNTVYLQMNSLKPEDTAVYDCAAPWWYYGVPYQTNKYDYWGQGTQVTLSS | low polyreactivity
5 | QVQLVESGGGLVQAGGSLRLSCAASGRIFGYYAMGWYRQAPGKERELVAAITGSGGRTYYADSVKGRFTISRDNAKNTVYLQMNSLKPEDTAVYYCARQQYRWERVYGYGYCGQGTQVTVSS | high polyreactivity
6 | QVQLVESGGGLVQAGGSLRLRCAASGFTFYWYAMGWYRQAPGKEREIVAAIDQSGGSTYYADSVKGRFTISRDNAKNSVYLQMNSLKQEDTAVYYCAARYILWDGDSWTEFDYWGQGTQVTVSS | low polyreactivity
7 | QVQLVESGGGLVQAGGSLRLSCAASGSTFNKYAMGWYRPAPGKERELVAVITKRGGSTYYADSVKGRFTISRDNAKNTVYLQMNSLKPEDTAVYYCAASSLYYGYDYWGQGTQVTVSS | high polyreactivity
8 | QVQLVESGGGLVQAGGSLRLSCAASGSTFVSYAMGWYRQAPGKERELVAASSRSGGSTYYADSVKGRFTISRDNAKNTVYLQMNILIPEDTAVYYCAADGRGPSKRNRDYWGQGTQVTVSS | high polyreactivity
9 | QVQLVESGGGLVQAGGSLRLSCAASGRTFDSNAMGWYRQAPGKERELVAGISESGGSTYYADSVKGRFTISRDNAKNTVYLQMNSLKPEDTAVYYCAYSGITVYYHRAVDFIVSYDYWGQGTQVTVSS | low polyreactivity
10 | QVQLVESGGGLVQAGGSLRVSCAASGITFNEYAMGWYRQAPGKEREFVAAITFSGDSTYADSVKGRFTISRDNAKNTVYLQMNSLKPEDTAVYYCAKRGGRQTYYYWGQGTQVTVSS | high polyreactivity
11 | QVQLVESGGGLVQPGGSLRLSCAASGIIFSFYTIGWDRQEPGKEMELVAAISSSGGRTFYADSVKGRFTISRDNAKNTVYLQMNSLKPEDTAVYYCYAAHTREYYWGQGTQVTLSS | high polyreactivity
12 | QVQLVESGGGLVQEGGSLRLSCASSGFIFEDYAKGWYRQARGKERELVAAMRSNDDSTYYADSVKGRFTISRDNAKNSVYFQMNSLKPEDTAVYYCAAATYGTRLRRYYYWGQGSQVTVSS | high polyreactivity
13 | QVQLVESGGGLVQAGGSLRLSCAASGSTFAWYDMGWYRQAPGNEREFVAAIDYGGGSTYADSVKGRFTISRDKEKNTVYLQMNSLKPEDTAVYYCNADNWVYLYDYWGQGTQVTVSS | low polyreactivity
14 | QVQLVESGGGLVQAGGSLRLSCAASGSTFKVYAMGWYRQAPGKERELVAVISGGGRTNYADSVKGRFTISRDNAKNTVYLQMNSLKPEDTAVYYCAALGPYGSARRKYGYWGQGTQVTVSS | high polyreactivity
15 | QVQLVESGGGLVQAGGSLRLSCAASGRKLSWNTMGWYRQAPGKETELVACITQNVGSTYYADSVKGRFTISRDNAKNTVYIQMKSLKPEDTAVYYCAAKRLSWHRYGYWGQGTQETVSS | low polyreactivity
16 | QVHLVESGGGLGQAGGSLRLSCAASGIIFRLYAKGWYIPAPGKERELVAAISRRGDSTYYADSVKGRFTISRDNAKNTVYLQMIILKPEDTAVYYCAAERWGDYGYWGQGTQVTVSS | high polyreactivity
17 | QVQLVESGGGLVQAGGSLRLSCSASGFTYDYYAMGWYRQAPGKERELVATISVSAVSTSYADSVKGRFTISRDNAKNTVYLQMNSLKPEDTAVYYCAASRGPYYYHYSGSLKSFDYWGQGTQVTVSS | low polyreactivity
18 | QVQLVESGGGLVQAGGSLRLSCAASGRIFGGYAMGWYRQAPGKERELVAAISNGGRTNYADSVKGRFTISRDNAKNTVYLQMISLKPEDTAVYYCAARNYKPYGYYRIYDSWGQGTQVTVSS | high polyreactivity
19 | QVQLVDSGGRLVQAGGSLRLSCSASGIIIPSYAMGWYRQAPGKERELVAAISGRGGRTYYSDSVKGRFTISRDNAKNSVYLQMNSLKPEDTAVYYCAASGTSSSRKSYYWGQGTQVTVSS | high polyreactivity
20 | QVQLVESGGGLVQAGGSLRLSCAASGITFRRYAMGWYRQAPGKERELVAVISVSGGRTHYADSVKGRFTISRDNAKNTVYLQMNSLKPEDTAVYYCAAQFSYRYYTDEVGYWGQGTQVTVSS | high polyreactivity
21 | QVQLVESGGGLVQAGGSLRLSCAASGGIFWRYAMGWYRQAPGKERELVAAISSRGGSTYYADSVKGRFTISRDNAKNTVYLQMNSLKPEDTAVYYCAAAFLSRVQGYDSWGQGTQVTVSS | high polyreactivity
22 | QVQLVESGGGLVQAGGSLRLSCASSGRIFGLYAMGWYRHAPGKERELVAAITLSGDGTDYADSVKGRFTISRDNAKNTVYLQMNSLKPEDTAVYYCAKVGQYWWNMDYWGQGTQVTVSS | low polyreactivity
23 | QVQLVESGGGLVQAGGSLRLSCAASGRIFGSNTMGWFRQAPGKERELVAAITGDDSTYADSVKGRFTISRDNAKNTVYLQMNSLKPVDTAVYYCAVVWVWDVWFLVYYWGQGTQVTVSS | low polyreactivity
24 | QVQLVESGGGLVQAGGSLRLSCAASGRIFYQNTMGWYRQAPGKERELVASISTTGGNTYYADSVKGRFTISRDNAKNTVYLQMNSLKPEDTAVYYCNAVRSVYLYGYIYGVDYWGQGTQVTVSS | low polyreactivity
25 | QVQLVESGGGLVQAGGSLRLSCAASGRIFRYYAMGWYRQAPGKERELVAAISKTGGSTYYADSVKGRFTISRDNAKNTVYLQMNSLKPEDTAVYYCAAVGRYSYLSSEGDYWGQGTQVTVSS | high polyreactivity
26 | QVQLVESGGGLVQAGGSLRLSCAASGSILPRYVMGSYRQAPAKETELVAAISQSGGSTYYADTVKARFTISRDNAKNTVYLQMNRLKPEDTAVYYCAAEVRGWRVDYYYWGQGTQVTVSS | high polyreactivity
27 | QVQLVQSGGGLVQAGGSLRLICAASGSNFYGNAMGWYRQAPGKERELVAAISRGGGYTYYADSVKGRFTISRDNAKNTVYLEMNSLKPEDTAVYYCDATRYLHPWYYPYYYWGQVTQVTVSS | low polyreactivity
28 | QVQLVESGVGLVQAGGSLRLSWTASGRIFSWYAMGWYRQAPGKERELVADISWGTGSTYYADTVKGRFTISRDNAKHTVDLQMNSLKPEDTAVYYCAADPGYYYEYRRFYYWGQGTQVTVSS | high polyreactivity
29 | QLQLVESGGGLVQAGGSLRLSCAASGFIFPDYAMGWYRQAPGTERELVAAMRIRDGSTYYADSVKGRFTISRDNAKNTVYLQMNSLKPEAPAVYYCAVRSSYGYSDTNYIMYYWGQGTQVTVSS | low polyreactivity
30 | QVQLLESGGGLVQAGGSLRLSCAASGFTFRVNAMGWYIQAPGKERELVAAISSGGSTNYADSVKGRFTISRDNAKNTVYLQMNSLKPEDTAVYYCAKRFKYIYFWGQGTQVTVSS | high polyreactivity
